This passage reports β-galactosidase units (ONPG hydrolysis, Miller units), pEB13-lacZ-NS5A/B + pMALc-NN-scNS3, β-galactosidase units (ONPG hydrolysis, Miller units), pMGT14 and β-galactosidase units (ONPG hydrolysis, Miller units), pMGT15 results from patent publication US20080089862.

This series concerns engineered beta-galactosidase reporter protein with the NS3-cleavable NS5A/B site between residues 2.

Take “MBP-scNS3 (E. coli maltose binding protein fused to the NS4A peptide followed by the NS3 protease domain)”: the β-galactosidase units (ONPG hydrolysis, Miller units), pEB13-lacZ-NS5A/B + pMALc-NN-scNS3 turned out to be 20 Miller units and the β-galactosidase units (ONPG hydrolysis, Miller units), pMGT14 amounted to 60 Miller units.
On to “MBP-scNS3mut (inactive mutant S-1165-A NS3)”, for which the β-galactosidase units (ONPG hydrolysis, Miller units), pMGT15 is 160 Miller units.
